# Assay results: article PMC5890618, “Structural and Functional Insights into Bacillus subtilis Sigma Factor Inhibitor, CsfB” (Structure(London, England:1993), 2018)
# T1: σ^G (recombinant full-length sigma factor G, residues 1-260) (Bacillus subtilis, UniProt P19940 1-260)
# T1 construct: Cloned into pET-46; also called sigma G; SigG; source: E. coli BL21(DE3)pLysS, purified (HisTrap Ni Sepharose, Superdex75 SEC)
# T1 sequence (looked up): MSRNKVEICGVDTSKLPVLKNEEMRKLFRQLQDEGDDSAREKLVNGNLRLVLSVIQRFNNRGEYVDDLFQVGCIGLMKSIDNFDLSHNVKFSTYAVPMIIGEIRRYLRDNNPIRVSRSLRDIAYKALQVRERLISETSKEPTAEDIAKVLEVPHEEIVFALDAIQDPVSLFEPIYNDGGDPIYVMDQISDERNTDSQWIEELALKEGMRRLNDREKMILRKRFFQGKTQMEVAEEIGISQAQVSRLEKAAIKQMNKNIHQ
# B1: CsfB^A48E (full-length CsfB variant A48E, residues 1-64) (natural protein, Bacillus subtilis, UniProt P37534 1-64, looked up)
# chain: MDETVKLNHTCVICDQEKNRGIHLYTKFICLDCERKVISTSTSDPDYEFYVKKLKSIHTPPLYS
# notes: Anti-sigma factor CsfB (also called Gin), Bacillus subtilis strain PY79, full length, residues 1-64, with A48E at the known cleavage point; Made by site-directed mutagenesis of pNIC28-CsfB; The His-tag was removed with TEV 'when required'; 15N-labelled for the NMR titrations; also called Gin A48E; source: E. coli BL21(DE3)pLysS, purified (HisTrap Ni Sepharose, Superdex75 SEC)
# B2: σ^E (truncated sigma factor E, residues 17-239, lacking the N-terminal membrane-anchored pro-sequence) (domain or fragment, Bacillus subtilis, UniProt P06222 17-239, looked up)
# chain: MKLGLKSDEVYYIGGSEALPPPLSKDEEQVLLMKLPNGDQAARAILIERNLRLVVYIARKFENTGINIEDLISIGTIGLIKAVNTFNPEKKIKLATYASRCIENEILMYLRRNNKIRSEVSFDEPLNIDWDGNELLLSDVLGTDDDIITKDIEANVDKKLLKKALEQLNEREKQIMELRFGLVGEEEKTQKDVADMMGISQSYISRLEKRIIKRLRKEFNKMV
# notes: Cloned into pET28-TxrA; The tag was removed with TEV 'when required'; also called sigma E; SigE; source: E. coli BL21(DE3)pLysS, purified (HisTrap Ni Sepharose, Superdex75 SEC)
# B3: CsfB^1-48 (truncated wild-type CsfB, stable degradation product, residues 1-48) (domain or fragment, Bacillus subtilis, UniProt P37534 1-48, looked up)
# chain: MDETVKLNHTCVICDQEKNRGIHLYTKFICLDCERKVISTSTSDPDYA
# notes: Produced as N-terminally histidine-tagged full-length CsfB that degraded to 1-48; Symmetrical homodimer by NMR; also called cleaved CsfB; truncated variant; source: E. coli BL21(DE3)pLysS, purified (HisTrap Ni Sepharose, Superdex75 SEC); arises by degradation of recombinant full-length CsfB
# Tests used:
# [1] = target: B2; assay: ITC; cell 60 uM CsfB^A48E, syringe 395 uM σ^E; 25°C; 19 injections of 2 ul; 50 mM HEPES pH 7.5, 150 mM KCl, 0.5 mM TCEP; fitted assuming 1:1 stoichiometry; details: both partners purified
# [2] = target: T1, σ^G (recombinant full-length sigma …); assay: NMR titration; 15N-labelled CsfB (100 uM for CsfB^A48E) titrated with unlabelled sigma factor up to 1:2 molar equivalents; 1H-15N SOFAST-HMQC; 298 K; 50 mM HEPES pH 7.5, 150 mM KCl, 0.5 mM TCEP; details: both partners purified
# [3] = target: B1; assay: ITC; cell 60 uM CsfB^A48E, syringe 395 uM σ^E; 25°C; 19 injections of 2 ul; 50 mM HEPES pH 7.5, 150 mM KCl, 0.5 mM TCEP; fitted assuming 1:1 stoichiometry; details: both partners purified
# [4] = target: the molecule itself; assay: NMR solution structure; CsfB 1-48 dimer, >500 uM, 303 K, 50 mM HEPES pH 7.5, 150 mM KCl, 0.5 mM TCEP; intermolecular NOEs from 12C-filtered, 13C-edited NOESY on a mixed labelled/unlabelled dimer; ARIA2.3 with C2 symmetry
binder,measurement,setting,value
B1,Kd,[1],12.5 ± 2.4 nM
same,binding result,[2],binds
B2,dH,[3],-8.04 ± 0.04 kcal/mol
same,stoichiometry N,[3],1.01 sites
B3,stoichiometry N,[4],2
